Test results reported in patent US20020103133.

T1: acetyl-P-L-G-L-L-S-L-Dox
T1 chain: XLGLLSL

T2: acetyl-P-L-G-Hof-Orn-L-Dox
T2 chain: XLGXXL

T3: acetyl-P-L-G-L-L-Dox
T3 chain: XLGLL

T4: acetyl-P-L-G-L-Y-L-Dox
T4 chain: XLGLYL

T5: acetyl-P-L-G-L-L-A-L-Dox
T5 chain: XLGLLAL

T6: acetyl-G-P-L-G-L-L-Dox
T6 chain: XPLGLL

T7: succinyl-P-L-G-Hof-Y-L-Dox
T7 chain: XLGXYL

T8: acetyl-G-P-L-G-L-A-L-Dox
T8 chain: XPLGLAL

T9: acetyl-P-L-G-Hof-Y-L-Dox
T9 chain: XLGXYL

T10: acetyl-P-L-G-L-Y-A-L-Dox
T10 chain: XLGLYAL

T11: acetyl-P-L-G-L-A-L-Dox
T11 chain: XLGLAL

T12: acetyl-G-P-L-G-L-Y-Dox
T12 chain: XPLGLY

T13: acetyl-P-L-G-L-A-A-L-Dox
T13 chain: XLGLAAL

B1: Neprilysin (protein)
chain: YDDGICKSSDCIKSAARLIQNMDATTEPCTDFFKYACGGWLKRNVIPETSSRYGNFDILRDELEVVLKDVLQEPKTEDIVAVQKAKALYRSCINESAIDSRGGEPLLKLLPDIYGWPVATENWEQKYGASWTAEKAIAQLNSKYGKKVLINLFVGTDDKNSVNHVIHIDQPRLGLPSRDYYECTGIYKEACTAYVDFMISVARLIRQEERLPIDENQLALEMNKVMELEKEIANATAKPEDRNDPMLLYNKMTLAQIQNNFSLEINGKPFSWLNFTNEIMSTVNISITNEEDVVVYAPEYLTKLKPILTKYSARDLQNLMSWRFIMDLVSSLSRTYKESRNAFRKALYGTTSETATWRRCANYVNGNMENAVGRLYVEAAFAGESKHVVEDLIAQIREVFIQTLDDLTWMDAETKKRAEEKALAIKERIGYPDDIVSNDNKLNNEYLELNYKEDEYFENIIQNLKFSQSKQLKKLREKVDKDEWISGAAVVNAFYSSGRNQIVFPAGILQPPFFSAQQSNSLNYGGIGMVIGHEITHGFDDNGRNFNKDGDLVDWWTQQSASNFKEQSQCMVYQYGNFSWDLAGGQHLNGINTLGENIADNGGLGQAYRAYQNYIKKNGEEKLLPGLDLNHKQLFFLNFAQVWCGTYRPEYAVNSIKTDVHSPGNFRIIGTLQNSAEFSEAFHCRKNSYMNPEKKCRVW
B2: MMP-2 (protein)
chain: YNFFPRKPKWDKNQITYRIIGYTPDLDPETVDDAFARAFQVWSDVTPLRFSRIHDGEADIMINFGRWEHGDGYPFDGKDGLLAHAFAPGTGVGGDSHFDDDELWTLGEGQVVRVKYGNADGEYCKFPFLFNGKEYNSCTDTGRSDGFLWCSTTYNFEKDGKYGFCPHEALFTMGGNAEGQPCKFPFRFQGTSYDSCTTEGRTDGYRWCGTTEDYDRDKKYGFCPETAMSTVGGNSEGAPCVFPFTFLGNKYESCTSAGRSDGKMWCATTANYDDDRKWGFCPDQGYSLFLVAAHEFGHAMGLEHSQDPGALMAPIYTYTKNFRLSQDDIKGIQELYGASPDIDLGTGPTPTLGPVTPEICKQDIVFDGIAQIRGEIFFFKDRFIWRTVTPRDKPMGPLLVATFWPELPEKIDAVYEAPQEEKAVFFAGNEYWIYSASTLERGYPKPLTSLGLPPDVQRVDAAFNWSKNKKTYIFAGDKFWRYNEVKKKMDPGFPKLIADAWNAIPDNLDAVVDLQGGGHSYFFKGAYYLKLENQSLKSVKFGSIKSDWLGC

Legend:
[1] = target: T1, acetyl-P-L-G-L-L-S-L-Dox
[2] = target: T2, acetyl-P-L-G-Hof-Orn-L-Dox
[3] = target: T3, acetyl-P-L-G-L-L-Dox
[4] = target: T4, acetyl-P-L-G-L-Y-L-Dox
[5] = target: T5, acetyl-P-L-G-L-L-A-L-Dox
[6] = target: T6, acetyl-G-P-L-G-L-L-Dox
[7] = target: T7, succinyl-P-L-G-Hof-Y-L-Dox
[8] = target: T8, acetyl-G-P-L-G-L-A-L-Dox
[9] = target: T9, acetyl-P-L-G-Hof-Y-L-Dox
[10] = target: T10, acetyl-P-L-G-L-Y-A-L-Dox
[11] = target: T11, acetyl-P-L-G-L-A-L-Dox
[12] = target: T12, acetyl-G-P-L-G-L-Y-Dox
[13] = target: T13, acetyl-P-L-G-L-A-A-L-Dox

Protein	kcat/Km (cleavage of conjugate, HPLC) [1]	kcat/Km (cleavage of conjugate, HPLC) [2]	kcat/Km (cleavage of conjugate, HPLC) [3]	kcat/Km (cleavage of conjugate, HPLC) [4]	kcat/Km (cleavage of conjugate, HPLC) [5]	kcat/Km (cleavage of conjugate, HPLC) [6]	kcat/Km (cleavage of conjugate, HPLC) [7]	kcat/Km (cleavage of conjugate, HPLC) [8]	kcat/Km (cleavage of conjugate, HPLC) [9]	kcat/Km (cleavage of conjugate, HPLC) [10]	kcat/Km (cleavage of conjugate, HPLC) [11]	kcat/Km (cleavage of conjugate, HPLC) [12]	kcat/Km (cleavage of conjugate, HPLC) [13]
B1	8.2e+07 M⁻¹ s⁻¹	< 1e+06 M⁻¹ s⁻¹	2.2e+07 M⁻¹ s⁻¹	2.2e+07 M⁻¹ s⁻¹	1e+08 M⁻¹ s⁻¹	2e+07 M⁻¹ s⁻¹	< 1e+06 M⁻¹ s⁻¹	4.2e+07 M⁻¹ s⁻¹	< 1e+06 M⁻¹ s⁻¹	3.88e+08 M⁻¹ s⁻¹	4.9e+07 M⁻¹ s⁻¹	1.9e+07 M⁻¹ s⁻¹	1.2e+08 M⁻¹ s⁻¹
B2	1.03e+08 M⁻¹ s⁻¹	1.36e+08 M⁻¹ s⁻¹	1.8e+07 M⁻¹ s⁻¹	8.8e+07 M⁻¹ s⁻¹	6.3e+07 M⁻¹ s⁻¹	3e+07 M⁻¹ s⁻¹	> 1.2e+08 M⁻¹ s⁻¹	8.6e+07 M⁻¹ s⁻¹	> 1.2e+08 M⁻¹ s⁻¹	1.9e+08 M⁻¹ s⁻¹	5.3e+07 M⁻¹ s⁻¹	4e+07 M⁻¹ s⁻¹	1.1e+08 M⁻¹ s⁻¹
